What was measured:
Conditions in all cases: FMN input: 0 or 200 uM; Eterna round: R93 (includes R88 designs)
MS2 coat protein [1] = assay: apparent KD of MS2 coat protein, switch ON state; designed switch direction (-1 OFF switch, 1 ON switch): 1; higher = weaker reporter binding
Method in brief: (§1)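 Normalised binding curves from single clusters were fitted, and the median fit for each design is given as apparent KD. The clusters held designed RNA switches transcribed on-chip from Illumina sequencing clusters. These were titrated with SNAP-549-labelled MS2 coat protein (twofold steps from 0.7 or 1.5 nM to 3 µM, 0.8–1.5 h to 10–20 min per step) in 100 mM Tris-HCl pH 7.5, 80 mM KCl, 4 mM MgCl2, without or with constant ligand.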

MS2 coat protein [2] = assay: apparent KD of MS2 coat protein, switch OFF state (with FMN for OFF switches, without FMN for ON switches); designed switch direction (-1 OFF switch, 1 ON switch): 1; higher = weaker reporter binding
Method in brief: as §1

MS2 coat protein [3] = assay: apparent KD of MS2 coat protein, switch ON state; designed switch direction (-1 OFF switch, 1 ON switch): -1; higher = weaker reporter binding
Method in brief: as §1

MS2 coat protein [4] = assay: apparent KD of MS2 coat protein, switch OFF state (with FMN for OFF switches, without FMN for ON switches); designed switch direction (-1 OFF switch, 1 ON switch): -1; higher = weaker reporter binding
Method in brief: as §1

| Sequence | apparent KD of MS2 coat protein (MS2 coat protein [1]) [µM] | apparent KD of MS2 coat protein (MS2 coat protein [2]) [µM] | apparent KD of MS2 coat protein (MS2 coat protein [3]) [µM] | apparent KD of MS2 coat protein (MS2 coat protein [4]) [µM] |
| --- | --- | --- | --- | --- |
| AAAAAAAAAAGUCAGGAUAUGCAGGGCGGGACAUGAGGAUCACCCAUGUGGCGGAAAAAAAAAAAGCAGAAGGGACGAAUAAAAAA [William Edwards Deming] | 0.0231 | 0.0428 |  |  |
| GAAAAACAUGAGGAUCACCCAUGUCAGGAUAUCGAAAAAAAUAAAAAAGAAAAGAAAACGAGAAGGGACAAAAG [Mat - Same state - Mayanna Mod - D112] |  |  | 0.0316 | 0.0471 |
| GAAAAACAUGAGGAUCACCCAUGUGAGGAUAUACGAAAGUAGAAGGCACUAAAAGAAAAGAGAAGGAGAAAAGA [Meechl Ex1 R2 m2] |  |  | 0.0199 | 0.0388 |
| GAAAAGCGAGGAUAUACAGAAAAAAAAACAAAAAAAGAAAAACAUGAGGAUCACCCAUGUAGAAGGCGCAAAAA [V1] |  |  | 0.0259 | 0.0494 |
| GAAAAGGAAGGAUAUACAAAGGGACCUUAUAAAAGAAGAAGACAUGAGGAUCACCCAUGUAGAAGGUCCAGAUA [Diusanatra] |  |  | 0.0195 | 0.0196 |
| GAAAAGUCAGGAUAUACAGAUAAAAAAACGAAAAAAAAUCUGUAGAAGGGACAUGAGGAUCACCCAUGUAAAAG [Mat - Exclusion 4 - Mayanna - D101] |  |  | 0.0473 | 0.0332 |
| GAAAAGUCAGGAUAUGCAGAUAAAAAAACGAAAAAAAAUCUGCAGAAGGGACAUGAGGAUCACCCAUGUAAAAA [Mat - Exclusion 4 - Mayanna - D109] |  |  | 0.0456 | 0.0457 |
| GAAAAGUGAGGAUAUGUCAAAAGUCACAAAAGUGACAAAAGACAGAAGGCACAUGAGGAUCACCCAUGUGGAAA [Mat - Exaclusion 4 - Eli mod - D51] |  |  | 0.0309 | 0.0384 |
| GAAAAUGGAGGAUAUACGUACAUGUCAAAAGACGUGAAGGGACAUGAGGAUCACCCAUGUAGAAGGCUAAAAAG [Mat - Exclusion 2 - JL mod - D96] |  |  | 0.101 | 0.0154 |
| GAAACACAUGAGGAUCACCCAUGUCAGGAUAUGUAGAUAAAAAGAAAAUAAAAUAAAAACAGAAGGGACAAAAG [Mat - Same state - Mayanna Mod - D103] |  |  | 0.0644 | 0.0763 |
| GAAACUAGAGGAUAUACGAACAUGUCAAAAGACGUGAAGGGACAUGAGGAUCACCCAUGUAGAAGGCUAGAAAG [Mat - Exclusion 2 - JL mod - D100] |  |  | 0.0395 | 0.0351 |
| GAAACUAGAGGAUAUACGUACAUGUCAAAAGACGUGAAGGGACAUGAGGAUCACCCAUGUAGAAGGCUAGAAAG [Mat - Exclusion 2 - JL mod - D98] |  |  | 0.0478 | 0.0542 |
| GAAACUGGAGGAUAUACGAACAUGUCAAAAGACGUGAAGGGACAUGAGGAUCACCCAUGUAGAAGGCUAGAAAG [Mat - Exclusion 2 - JL mod - D99] |  |  | 0.0749 | 0.0224 |
| GAAACUGGAGGAUAUACGUACAUGUCAAAAGACGUGAAGGGACAUGAGGAUCACCCAUGUAGAAGGCUAGAAAG [Mat - Exclusion 2 - JL mod - D97] |  |  | 0.0706 | 0.0219 |
| GAAGAACAUGAGGAUCACCCAUGUCAGGAUAUACAGAAGGGAAUAAUAUAACCUGGAAGUAGAAGGGACAAGAA [Ex 1 May 44] |  |  | 0.0302 | 0.0654 |
| GACAUGCUAGGAUAUACAGGACAAAUUGGGCAUCCGCAUGGACAUGAGGAUCACCCAUGUAGAAGGAGUAGAAA [Inonmatixe] |  |  | 0.368 | 0.798 |
| GAGAUACAUGAGGAUCACCCAUGUGAGGAUAUCGGUUGGAGGAGGUGGAGGUUGAGUACGAGAAGGCACGGAUG [salish99-Ex1-10] |  |  | 0.0249 | 0.0311 |
| GCUGUCCUAGGAUAUACAUGAGGAUCACCCAUGUGAGAGAAAAAAGUGAGAAAGAAAAGUAGAAGGAGGGUAGG [salish99-ex3-104] |  |  | 0.0304 | 0.0444 |
| GCUGUGCUAGGAUAUACAUGAGGAUCACCCAUGUGAGAGAAAAAAGUGAGAAAGAAAAGUAGAAGGAGCGUAGG [salish99-ex3-100] |  |  | 0.0291 | 0.0592 |

| Sequence | apparent KD of MS2 coat protein (MS2 coat protein [1]) [µM] | apparent KD of MS2 coat protein (MS2 coat protein [2]) [µM] | apparent KD of MS2 coat protein (MS2 coat protein [3]) [µM] | apparent KD of MS2 coat protein (MS2 coat protein [4]) [µM] |
| --- | --- | --- | --- | --- |
| GCUUGUGAAGGAUAUACAUGAGGAUCACCCAUGUGAGAGAAAAAAGUGAGAAAGAAAAGUAGAAGGUCGUGAGG [salish99-ex3-79] |  |  | 0.0361 | 0.037 |
| GGAAAACAUGAGGAUCACCCAUGUAAGGAUAUGCAAAGGAUAUAGAAGGAAAAAAAAAGCAGAAGGUACAAAGG [salish99-ex1-20] |  |  | 0.0265 | 0.0536 |
| GGAAAGUAAGGAUAUGCGAACAAACAAACAAACAAAAGGGAACAUGAGGAUCACCCAUGUAGAAGGUGCAAACA [Exclusion 2 Three redone] |  |  | 0.046 | 0.0326 |
| GGGAAACAUGAGGAUCACCCAUGUGAGGAUAUGCUAUGGAAAAUAAAAAUAAAACAUAGCAGAAGGCAUAAAAA [Denovo 11] |  |  | 0.0306 | 0.037 |
| GGUUGGCGAGGAUAUACAUGAGGAUCACCCAUGUGAGAGAAAAAAGUGAGAAAGAAACGUAGAAGGCGCUGACG [salish99-ex3-30] |  |  | 0.0884 | 0.824 |
| GGUUGGCGAGGAUAUACAUGAGGAUCACCCAUGUGAGAGAAGAAAGUGAGGAGGAGAAGUAGAAGGCGCUGACG [salish99-ex3-20] |  |  | 0.0514 | 0.0989 |
| GUAAACCUAGGAUAUACAUGAGGAUCACCCAUGUAAAAAUUAAUAAAAAGAAAAACAAGUAGAAGGAGGUAGAU [JR_Exc003_Sub1225] |  |  | 0.0196 | 0.0208 |
| GUGAAGGAAGGAUAUACAAAGGGACGUUAUAAGAGAAGAAGACAUGAGGAUCACCCAUGUAGAAGGUCCAGAUC [Beorteesri] |  |  | 0.0259 | 0.0435 |
| GUGUACAGAGGAUAUACAUAAGCAUGGAAACAUGCAACUUCACAUGAGGAUCACCCAUGUAGAAGGCUGUACAC [Ex2: 729] |  |  | 0.0121 | 0.0137 |
| GUGUACAGAGGAUAUACAUAAGCAUGGAAACAUGCAAGAUCACAUGAGGAUCACCCAUGUAGAAGGCUGUACAC [Ex2: 738] |  |  | 0.342 | 0.18 |
| GUGUACAGAGGAUAUAUAUGAGCUAGGAAACUAGCAAGAUCACAUGAGGAUCACCCAUGUAGAAGGCUGUACAC [Ex2: 735] |  |  | 0.108 | 0.796 |
| UAGAUACAUGAGGAUCACCCAUGUGAGGAUAUCGUUUGUACUAAUCUUUUAGUAUUUUCGAGAAGGCACAUAUA [Ex1Try2_Neo] |  |  | 0.0485 | 0.143 |
| UAUAGACAUGAGGAUCACCCAUGUGAGGAUAUCAGUAACUACAAAACAUCACAUACAAUGAGAAGGCACAGAAA [JR_Exc001_Sub014] |  |  | 0.04 | 0.0498 |
| UCCACACAUGAGGAUCACCCAUGUGAGGAUAUCUAGAAAACCUCAUGUAAAAAAAUCUAGAGAAGGCAUAUGAA [Design 91: Pseudoknot A] |  |  | 0.0241 | 0.0186 |
| UCCAGACAUGAGGAUCACCCAUGUCAGGAUAUCUAGAAAACCUCAUGUAAAAAAAACUAGAGAAGGGAUAUGAA [Design 96: Pseudoknot F] |  |  | 0.0196 | 0.0157 |
| UCCUGACAUGAGGAUCACCCAUGUCAGGAUAUGCAUCUUAGGAAAAAAAAACUAAGAUGCAGAAGGGACAUGGG [Design 1: Super Stable] |  |  | 0.0269 | 0.0363 |
| UGGGAGUCAGGAUAUACGAACAUGUCGCCAGAUGUCAAGGUACAUGAGGAUCACCCAUGUAGAAGGGAGGAGAA [salish99-Ex2-30(!)] |  |  | 0.0971 | 0.0566 |
| UUUACGUGAGGAUAUGCGAAUAGUACGUAAGUCUUACAGACGCAGAAGGCACAUGAGGAUCACCCAUGUGAACC [JR_Exc004_Sub310] |  |  | 0.0227 | 0.0559 |
| UUUUGACAUGAGGAUCACCCAUGUCAGGAUAUAGUAAGAAAAAAAAAAAAAAAAACUACUAGAAGGGAUAUGGA [Amethyst 51] |  |  | 0.0245 | 0.0254 |
